Assay results from PMC4921775, “Transient Fcho1/2⋅Eps15/R⋅AP-2 Nanoclusters Prime the AP-2 Clathrin Adaptor for Cargo Binding” (Developmental Cell, 2016).

B1: FCHO1 μHD (purified, not on beads) [human] / EPS15 616–638 peptide [human] (parent complex)
chain 1: HGVSRGPSPVVLGSQDALPIATAFTEYVHAYFRGHSPSCLARVTGELTMTFPAGIVRVFSGTPPPPVLSFRLVHTTAIEHFQPNADLLFSDPSQSDPETKDFWLNMAALTEALQRQAEQNPTASYYNVVLLRYQFSRPGPQSVPLQLSAHWQCGATLTQVSVEYGYRPGATAVPTPLTNVQILLPVGEPVTNVRLQPAATWNLEEKRLTWRLPDVSEAGGSGRLSASWEPLSGPSTPSPVAAQFTSEGTTLSGVDLELVGSGYRMSLVKRRFATGMYLVSC
chain 2: NLDFFQSDPFVGSDPFKDDPFGK

Variants of: B1
Assay: ITC; parent: 2.7e+03 nM

Kd [µM]	Variant
77.4	chain 1 HGVSRGPSPVVLGSQDALPIATAFTEYVHAYFRGHSPSCLARVTGELTMTFPAGIVRVFSGTPPPPVLSFRLVHTTAIEHFQPNADLLFSDPSQSDPETKDFWLNMAALTEALQRQAEQNPTASYYNVVLLRYQFSRPGPQSVPLQLSAHWQCGATLTQVSVEYGYRPGATAVPTPLTNVQILLPVGEPVTNVRLQPAATWNLEEKRLTWRLPDVSEAGGSGRLSASWEPLSGPSTPSPVAAQFTSEGTTLSGVDLELVGSGYAMGLVKRRFATGMYLVSC [chain 1 R264A, chain 1 S266G]
19.6	chain 1 HGVSRGPSPVVLGSQDALPIATAFTEYVHAYFRGHSPSCLARVTGELTMTFPAGIVRVFSGTPPPPVLSFRLVHTTAIEHFQPNADLLFSDPSQSDPETKDFWLNMAALTEALQRQAEQNPTASYYNVVLLRYQFSRPGPQSVPLQLSAHWQCGATLTQVSVEYGYRPGATAVPTPLTNVQILLPVGEPVTNVRLQPAATWNLEEKRLTWRLPDVSEAGGSGRLSASWEPLSGPSTPSPVAAQFTSEGTTLSGVDLELVGSGYMMSLVKRRFATGMYLVSC [chain 1 R264M]
9.1	chain 1 HGVSRGPSPVVLGSQDALPIATAFTEYVHAYFRGHSPSCLARVTGELTMTFPAGIVRVFSGTPPPPVLSFRLVHTTAIEHFQPNADLLFSDPSQSDPETKDFWLNMAALTEALQRQAEQNPTADYYNVVLLRYQFSRPGPQSVPLQLSAHWQCGATLTQVSVEYGYRPGATAVPTPLTNVQILLPVGEPVTNVRLQPAATWNLEEKRLTWRLPDVSEAGGSGRLSASWEPLSGPSTPSPVAAQFTSEGTTLSGVDLELVGSGYRMSLVKRRFATGMYLVSC [chain 1 S124D]
